US7338938B2, “Methods for treating a patient undergoing chemotherapy” (University of Southern California, priority 1999, dated 2008)
Where two headings read alike, the source gives them in different places.

How the values were obtained:
[1] = tested on: mice injected with 150 mg/kg 5FU intravenously (WBC, platelets, hemoglobin); assay: Effect of angiotensin fragments and ACE inhibitor on recovery after chemotherapy (Example 4); format: in vivo; conditions: after i.v. 5FU
Description: The next study was designed to test the effect of angiotensin peptides and the angiotensin converting enzyme inhibitor, enalapril, on recovery of white blood cells, platelets and hemoglobin after chemotherapy, as well as on granulocyte-macrophage colony forming units (GM-CFU) in the blood and bone marrow.
Female […] mice (4 per group), 6-8 weeks old, were injected with 150 mg/kg 5FU intravenously. Administration of the peptides (AII (100 μg/kg/day), AII(1-7) (10 or 100 μg/kg/day), AII(1-5) (10 or 100 μg/kg/day), and AII(1-6) (100 μg/kg/day)), by subcutaneous injection, or enalapril (30 mg/kg/day) by oral gavage, was begun 2 days after administration of the antineoplastic and continued daily until 28 days after 5FU administration, at which time the mice were euthanized for evaluation of white blood cell numbers, platelets, hemoglobin levels and the number of GM-CFU in the bone marrow and peripheral blood. On days 7, 10, 14 and 21 after 5FU administration, blood was taken under anesthesia from the retro-orbital sinus to assess white blood cell number, platelet number, and hemoglobin levels.
The mice were bled from the retro-orbital sinus at days 7, 10, 14 and 21. The mice were anesthetized with Metofane (an inhaled anesthesia). Approximately 150-200 μl of blood were obtained from the retro-orbital sinus with a heparinzed capillary tube. The blood was then placed in a 1.7 ml microfuge tube containing 10 mM EDTA and held on ice until further processing.
One hundred μl of blood was pipetted into a centrifuge tube, to which 900 μl of distilled water was added. The blood and water were mixed by inversion and allowed incubate at 4° C. for 20 minutes. The tube was then centrifuged at 12000 rpm to precipitate the cellular debri for 20 to 30 minutes at room temperature. Twenty μl of the supernatant from this centrifugation was then added into triplicate wells of a 96 well plate containing 180 μl of distilled water. The optical density, was then read using a microplate reader at […].
Twenty μl of blood was mixed with 200 μl of red blood cell (RBC) lysing solution (0.83% NH4Cl, 10 mM EDTA, 0.5% NaHCO3). The mixture was then incubated for 10 minutes at 4° C. After this incubation, the supernatant was removed and the pellet was resuspended in 100 μl of PBS. To this, 100 μl of 0.04% trypan blue was added. This mixture was vortexed and the number of WBC (baseline was approximately 10^7 cells/ml) was evaluated by hematocytometer under light microscopy and the number: of platelets (baseline was approximately 2.5×10^8 platelets/ml) was evaluated by hematocytometer under phase contrast microscopy.
The blood was harvested by cardiac puncture on day 10 to assess mobilization of myeloid progenitors into the peripheral blood. The femurs and tibia were also collected and the bone marrow was harvested by flushing with PBS containing 2% fetal calf serum. After collection of the blood and bone marrow, the red blood cells were lysed with a hypotonic solution (described above), mixed with 0.04% trypan blue, and the number of nucleated cells assessed by hematocytometer under light microscopy. Aliquots of cells were then resuspended at 1×10^5 cells/ml (bone marrow) or 1×10^6 cells/ml Flood). […]

[2] = animal daily doses 10 to 1,000 μg/kg for 30 days; human 2.5 to 100 μg/kg/day
Description: Based upon safety evaluation studies in animals (where the daily doses tested ranged from 10 to 1,000 μg/kg for 30 days) and the pharmacology profile of, AII(1-7), the dose range used in humans ranged from 2.5 to 100 μg/kg/day over at least 10 days.

[3] = tested on: female C57B1/6 mice treated with 200 mg/kg cytoxan
[4] = tested on: patients with newly diagnosed breast cancer receiving doxorubicin and cyclophosphamide
[5] = tested on: patients with newly diagnosed breast cancer receiving doxorubicin and cyclophosphamide; assay: Phase I/II dose escalation study of AII(1-7) before and after chemotherapy (Example 5); conditions: in vivo

Asp-Arg-Val-Tyr-Ile-His-Pro [AII(1-7)]
platelets after administration [1]: increase in platelets | safety margin of human dose range over the animal exposures [2]: 9-10 fold | number of GM-CFU in the bone marrow ([3]; 100 μg/kg/day, started 2 days prior to cytoxan): slightly reduced | number of myeloid progenitor cells in the bone marrow ([3]; administration initiated 2 days after chemotherapy): increased the number of myeloid progenitor cells in the bone marrow | number of myeloid progenitors in the peripheral blood ([3]; administration initiated after cyclophosphamide treatment): increased the number of myeloid progenitors in the peripheral blood | recovery of WBC after intravenous cyclophosphamide ([3]; s.c. treatment initiated two days after the chemotherapeutic): accelerated the recovery of WBC | time after cyclophosphamide at which increase in WBC number was observed ([3]; treatment initiated two days after cyclophosphamide): ≤ 9 days | WBC number compared with control ([3]; treatment initiated two days prior to cyclophosphamide, starting on day 14): decrease in WBC number compared with control | change in platelet number ([4]; 50 μg/kg/day AII(1-7)): only day 12 showed any change in platelet number | dose-limiting toxicities ([4]; 2.5 to 100 μg/kg/d): No dose-limiting toxicities | Toxicity: ANC < 1000/μl (frequency) ([4]; AII(1-7) 2.5 μg/kg): 100% | Toxicity: Hgb < 10 gm/dl (frequency) ([4]; AII(1-7) 2.5 μg/kg): 66% | Toxicity: Lymph < 500/μl (frequency) ([4]; AII(1-7) 2.5 μg/kg): 66% | Toxicity: Platelet < 80 K/μl (frequency) ([4]; AII(1-7) 2.5 μg/kg): 0% | Toxicity: WBC < 2000/μl (frequency) ([4]; AII(1-7) 2.5 μg/kg): 66% | Toxicity: ANC < 1000/μl (frequency) ([4]; AII(1-7) 10 μg/kg): 100% | Toxicity: Hgb < 10 gm/dl (frequency) ([4]; AII(1-7) 10 μg/kg): 33% | Toxicity: Lymph < 500/μl (frequency) ([4]; AII(1-7) 10 μg/kg): 33% | Toxicity: Platelet < 80 K/μl (frequency) ([4]; AII(1-7) 10 μg/kg): 0% | Toxicity: WBC < 2000/μl (frequency) ([4]; AII(1-7) 10 μg/kg): 66% | Toxicity: ANC < 1000/μl (frequency) ([4]; AII(1-7) 50 μg/kg): 100% | Toxicity: Hgb < 10 gm/dl (frequency) ([4]; AII(1-7) 50 μg/kg): 0% | Toxicity: Lymph < 500/μl (frequency) ([4]; AII(1-7) 50 μg/kg): 33% | Toxicity: Platelet < 80 K/μl (frequency) ([4]; AII(1-7) 50 μg/kg): 0% | Toxicity: WBC < 2000/μl (frequency) ([4]; AII(1-7) 50 μg/kg): 66% | Toxicity: ANC < 1000/μl (frequency) ([4]; AII(1-7) 75 μg/kg): 100% | Toxicity: Hgb < 10 gm/dl (frequency) ([4]; AII(1-7) 75 μg/kg): 0% | Toxicity: Lymph < 500/μl (frequency) ([4]; AII(1-7) 75 μg/kg): 0% | Toxicity: Platelet < 80 K/μl (frequency) ([4]; AII(1-7) 75 μg/kg): 0% | Toxicity: WBC < 2000/μl (frequency) ([4]; AII(1-7) 75 μg/kg): 100% | Toxicity: ANC < 1000/μl (frequency) ([4]; AII(1-7) 100 μg/kg): 100% | Toxicity: Hgb < 10 gm/dl (frequency) ([4]; AII(1-7) 100 μg/kg): 0% | Toxicity: Lymph < 500/μl (frequency) ([4]; AII(1-7) 100 μg/kg): 0% | Toxicity: Platelet < 80 K/μl (frequency) ([4]; AII(1-7) 100 μg/kg): 0% | Toxicity: WBC < 2000/μl (frequency) ([4]; AII(1-7) 100 μg/kg): 33% | platelets ([4]; across doses): dose-dependent increase in platelets | restoration of hemoglobin prior to the next cycle ([4]; all doses): restoration of hemoglobin prior to the next cycle was observed | over-production of formed blood elements ([4]; before or after chemotherapy): No over-production of formed blood elements | Alopecia (frequency by treatment group) ([4]; chemotherapy patients): 46% | Anemia (frequency by treatment group) ([4]; chemotherapy patients): 7% | Fatigue (frequency by treatment group) ([4]; chemotherapy patients): 93% | Headache (frequency by treatment group) ([4]; chemotherapy patients): 26% | Myalgia/Muscle-skeletal pain (frequency by treatment group) ([4]; chemotherapy patients): 53% | Nausea (frequency by treatment group) ([4]; chemotherapy patients): 93% | Stomatitis (frequency by treatment group) ([4]; chemotherapy patients): 40% | Vomiting (frequency by treatment group) ([4]; chemotherapy patients): 80% | frequency of grade 2-4 anemia ([4]; compared to filgrastim): reduced the frequency | frequency of grade 2-4 thrombocytopenia ([4]; compared to filgrastim): reduced the frequency | frequency of grade 3-4 lymphopenia ([4]; compared to filgrastim): reduced the frequency | late neutrophil recovery ([4]; compared to filgrastim): enhanced compared to filgrastim | synergy between filgrastim and AII(1-7) ([4]; following 10-12 days of AII(1-7), as little as 1 dose of filgrastim normalizes the neutrophil count): possible synergy | ability to maintain on cycle, full intensity chemotherapy ([4]; in vivo): permitted the patients to maintain full intensity chemotherapy on cycle | cycle delays due to neutropenia ([4]; in vivo): No cycle delays due to neutropenia | dose at which anemia correction with each cycle was observed ([4]; in vivo): ≥ 2.5 µg/kg | dose intensity of chemotherapy received by all study patients ([4]; in vivo): 100% | doses that appear to be active ([4]; in vivo): greater than 10 μg/kg/day | hematopoietic lineages ([4]; in vivo): increase in multiple hematopoietic lineages | level of nadir in number of white blood cells and absolute neutrophil count and time to these nadirs ([4]; in vivo): dose dependent increase | mobilization of hematopoietic progenitors into the peripheral blood ([4]; in vivo): mobilization of hematopoietic progenitors into the peripheral blood | neutrophil nadirs ([4]; in vivo): not affected | optimal dosage range ([4]; in vivo): 50 to 75 µg/kg/day | recovery towards baseline in formed blood elements ([4]; in vivo): improves the recovery towards baseline in all formed blood elements | day of nadir in platelet number ([4]; lowest dose of AII(1-7)): 12 days | hemoglobin after chemotherapy ([4]; lowest dose of AII(1-7)): reduction in hemoglobin was observed | hemoglobin level by the next cycle ([4]; lowest dose of AII(1-7)): returned to baseline levels by the next cycle | change in platelet number ([4]; next higher dose than 50 μg/kg/day): no decrease in platelet number occurred | reduction of the frequency of stomatitis ([4]; of that observed with filgrastim treatment): 30% | doses of filgrastim needed at day 15 to treat grade 4 neutropenia ([4]; patients treated at 2.5 and 10 μg/kg AII(1-7)): 1-2 doses | acute effect on blood pressure following administration ([4]; patients with or without a history of hypertension): No acute affect on blood pressure | frequency of headache, muscle pain and alopecia ([4]; relative to historical numbers and filgrastim controls): decreasing the frequency | anemia ([4]; subsequent dose increases of AII(1-7)): slight to no anemia | drug related serious adverse events [5]: No drug related serious adverse events | safety (summary) [5]: safe without observed dose limiting toxicities
